According to paper PMC12505888, “Inhibitory activities of monoclonal antibodies against Staphylococcus aureus clumping factor A” (mBio, 2025):

How the values were obtained:
[1] = biological target: A domain of S. aureus Newman ClfA (clumping factor A), residues 40-559 (Staphylococcus aureus Newman) (UniProt Q53653); test: ELISA; ClfA-A Newman immobilised (100 ng per well); serial dilutions of human complement factor I (20 μg/mL); detected with rabbit anti-factor I polyclonal antibody and anti-rabbit HRP
[2] = biological target: A domain of ClfA from S. aureus strain N315 (Staphylococcus aureus N315) (UniProt Q99VJ4); test: ELISA; ClfA-A proteins immobilised (100 ng per well, carbonate/bicarbonate buffer pH 9.6, 4°C overnight); serial dilutions of soluble human fibrinogen (4 mg/mL) in PBS; bound fibrinogen detected with anti-human fibrinogen-HRP, A450
[3] = biological target: A domain of ClfA from S. aureus strain USA300 LAC (Staphylococcus aureus USA300 LAC); test: as above
[4] = biological target: A domain of ClfA from S. aureus strain WU1 (Staphylococcus aureus WU1); test: as above
[5] = biological target: Human von Willebrand factor (human) (UniProt P04275); test: ELISA; human vWF immobilised; vWbp with ClfA-A carrying only His tag added to the reaction; bound vWbp assessed with anti-StrepII antibody
[6] = biological target: Human von Willebrand factor (human) (UniProt P04275); test: ELISA; human vWF immobilised (100 ng per well); serial dilutions of recombinant ClfA-A (20 μg/mL) or recombinant vWbp (5 μg/mL); detected with anti-StrepII or anti-His HRP antibody
[7] = biological target: T1, A domain of S. aureus Newman ClfA (clumping factor A), residues 40-559 (Staphylococcus aureus Newman, UniProt Q53653 40-559); test: ELISA; ClfA-A proteins immobilised (100 ng per well, carbonate/bicarbonate buffer pH 9.6, 4°C overnight); serial dilutions of soluble human fibrinogen (4 mg/mL) in PBS; bound fibrinogen detected with anti-human fibrinogen-HRP, A450; settings: both partners purified
T1 construct: Cloned in pET15b (NdeI/BamHI); also called ClfA-A; ClfA-A Newman; source: E. coli BL21, purified (Ni-NTA resin followed by Streptactin resin); not shown: His6, N-terminal, kept
T1 sequence: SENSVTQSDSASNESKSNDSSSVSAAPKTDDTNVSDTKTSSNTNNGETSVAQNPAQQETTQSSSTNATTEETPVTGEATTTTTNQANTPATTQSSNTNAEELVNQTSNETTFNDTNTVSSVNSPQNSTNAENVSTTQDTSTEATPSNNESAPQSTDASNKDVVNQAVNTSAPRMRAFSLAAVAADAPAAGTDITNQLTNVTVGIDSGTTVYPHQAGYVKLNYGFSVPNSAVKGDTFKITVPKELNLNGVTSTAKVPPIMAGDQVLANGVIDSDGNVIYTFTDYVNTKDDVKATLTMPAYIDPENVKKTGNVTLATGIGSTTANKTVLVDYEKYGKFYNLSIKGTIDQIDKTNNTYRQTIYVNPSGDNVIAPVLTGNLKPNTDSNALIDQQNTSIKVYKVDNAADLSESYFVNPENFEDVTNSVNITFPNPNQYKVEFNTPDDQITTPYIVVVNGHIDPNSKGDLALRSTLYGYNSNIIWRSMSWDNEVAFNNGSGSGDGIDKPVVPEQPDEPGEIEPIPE

Human complement factor I (enzyme)
EC50 [1]: 1800 nM

Human fibrinogen (from UniProt P02671-2 20-644; P02675 31-491; P02679-2 27-437) (complex)
EC50 [2]: 1300 nM
EC50 [3]: 1000 nM
EC50 [4]: 1100 nM

vWbp + ClfA-A Newman (from UniProt Q53653 40-559) (complex)
EC50 [5]: 3500 nM

von Willebrand binding protein (vWbp) of S. aureus Newman, recombinant (natural protein)
EC50 [6]: 14500 nM

B1: Human fibrinogen (complex)
chain 1: ADSGEGDFLAEGGGVRGPRVVERHQSACKDSDWPFCSDEDWNYKCPSGCRMKGLIDEVNQDFTNRINKLKNSLFEYQKNNKDSHSLTTNIMEILRGDFSSANNRDNTYNRVSEDLRSRIEVLKRKVIEKVQHIQLLQKNVRAQLVDMKRLEVDIDIKIRSCRGSCSRALAREVDLKDYEDQQKQLEQVIAKDLLPSRDRQHLPLIKMKPVPDLVPGNFKSQLQKVPPEWKALTDMPQMRMELERPGGNEITRGGSTSYGTGSETESPRNPSSAGSWNSGSSGPGSTGNRNPGSSGTGGTATWKPGSSGPGSTGSWNSGSSGTGSTGNQNPGSPRPGSTGTWNPGSSERGSAGHWTSESSVSGSTGQWHSESGSFRPDSPGSGNARPNNPDWGTFEEVSGNVSPGTRREYHTEKLVTSKGDKELRTGKEKVTSGSTTTTRRSCSKTVTKTVIGPDGHKEVTKEVVTSEDGSDCPEAMDLGTLSGIGTLDGFRHRHPDEAAFFDTASTGKTFPGFFSPMLGEFVSETESRGSESGIFTNTKESSSHHPGIAEFPSRGKSSSYSKQFTSSTSYNRGDSTFESKSYKMADEAGSEADHEGTHSTKRGHAKSRPVRGIHTSPLGKPSLSP
chain 2: QGVNDNEEGFFSARGHRPLDKKREEAPSLRPAPPPISGGGYRARPAKAAATQKKVERKAPDAGGCLHADPDLGVLCPTGCQLQEALLQQERPIRNSVDELNNNVEAVSQTSSSSFQYMYLLKDLWQKRQKQVKDNENVVNEYSSELEKHQLYIDETVNSNIPTNLRVLRSILENLRSKIQKLESDVSAQMEYCRTPCTVSCNIPVVSGKECEEIIRKGGETSEMYLIQPDSSVKPYRVYCDMNTENGGWTVIQNRQDGSVDFGRKWDPYKQGFGNVATNTDGKNYCGLPGEYWLGNDKISQLTRMGPTELLIEMEDWKGDKVKAHYGGFTVQNEANKYQISVNKYRGTAGNALMDGASQLMGENRTMTIHNGMFFSTYDRDNDGWLTSDPRKQCSKEDGGGWWYNRCHAANPNGRYYWGGQYTWDMAKHGTDDGVVWMNWKGSWYSMRKMSMKIRPFFPQQ
chain 3: YVATRDNCCILDERFGSYCPTTCGIADFLSTYQTKVDKDLQSLEDILHQVENKTSEVKQLIKAIQLTYNPDESSKPNMIDAATLKSRKMLEEIMKYEASILTHDSSIRYLQEIYNSNNQKIVNLKEKVAQLEAQCQEPCKDTVQIHDITGKDCQDIANKGAKQSGLYFIKPLKANQQFLVYCEIDGSGNGWTVFQKRLDGSVDFKKNWIQYKEGFGHLSPTGTTEFWLGNEKIHLISTQSAIPYALRVELEDWNGRTSTADYAMFKVGPEADKYRLTYAYFAGGDAGDAFDGFDFGDDPSDKFFTSHNGMQFSTWDNDNDKFEGNCAEQDGSGWWMNKCHAGHLNGVYYQGGTYSKASTPNGYDNGIIWATWKTRWYSMKKTTMKIIPFNRLTIGEGQQHHLGGAKQAGDV
notes: Fibrinogen A-alpha chain, human; Fibrinogen B-beta chain, human; Fibrinogen gamma chain, human; also called Fg; source: bought: Sigma; copies: 2 + 2 + 2
EC50 [7]: 1300 nM
